Tests used:
Settings in all cases: both partners purified
[1] = target: T1, cohesin tetramer complex (Smc1-Smc3-Scc1-Scc3) (S. cerevisiae (budding yeast), UniProt P32908 1-1225; P47037 1-1230; Q12158 1-566; P40541 1-1150); experiment: SEC; Superose 6 Increase 3.2/300; 25 mM HEPES-KOH pH 7.6, 100 mM sodium acetate, 0.5 mM TCEP, 2 mM EDTA; proteins at the same molarity incubated together or separately at 30 °C for 5 min; fractions analysed by immunoblotting
T1 construct: Smc1, cohesin subunit, budding yeast; Smc3, cohesin subunit, budding yeast; Scc1, cohesin subunit, budding yeast; Scc3, cohesin subunit, budding yeast; also called cohesin complex; source: purified as previously described (Minamino et al. 2018): IgG agarose, 3C protease cleavage; copies: + + +

[2] = target: T2, Scc3 (S. cerevisiae (budding yeast), UniProt P40541 1-1150); experiment: cross-linking; CLMS with sulfo-SDA; cohesin, Tof1-Csm3 and Chl1 with or without Mrc1 at 300-350 nM, 30 °C 5 min, cross-linker 2 h at 4 °C, UV 365 nm; LC-MS/MS, 1% FDR at residue-pair level; two samples merged
T2 construct: Scc3, budding yeast; the Scc3 chain of m1; Stood in the cross-linking sample as a chain of cohesin; source: purified as part of cohesin, as previously described (Minamino et al. 2018)
T2 sequence (looked up): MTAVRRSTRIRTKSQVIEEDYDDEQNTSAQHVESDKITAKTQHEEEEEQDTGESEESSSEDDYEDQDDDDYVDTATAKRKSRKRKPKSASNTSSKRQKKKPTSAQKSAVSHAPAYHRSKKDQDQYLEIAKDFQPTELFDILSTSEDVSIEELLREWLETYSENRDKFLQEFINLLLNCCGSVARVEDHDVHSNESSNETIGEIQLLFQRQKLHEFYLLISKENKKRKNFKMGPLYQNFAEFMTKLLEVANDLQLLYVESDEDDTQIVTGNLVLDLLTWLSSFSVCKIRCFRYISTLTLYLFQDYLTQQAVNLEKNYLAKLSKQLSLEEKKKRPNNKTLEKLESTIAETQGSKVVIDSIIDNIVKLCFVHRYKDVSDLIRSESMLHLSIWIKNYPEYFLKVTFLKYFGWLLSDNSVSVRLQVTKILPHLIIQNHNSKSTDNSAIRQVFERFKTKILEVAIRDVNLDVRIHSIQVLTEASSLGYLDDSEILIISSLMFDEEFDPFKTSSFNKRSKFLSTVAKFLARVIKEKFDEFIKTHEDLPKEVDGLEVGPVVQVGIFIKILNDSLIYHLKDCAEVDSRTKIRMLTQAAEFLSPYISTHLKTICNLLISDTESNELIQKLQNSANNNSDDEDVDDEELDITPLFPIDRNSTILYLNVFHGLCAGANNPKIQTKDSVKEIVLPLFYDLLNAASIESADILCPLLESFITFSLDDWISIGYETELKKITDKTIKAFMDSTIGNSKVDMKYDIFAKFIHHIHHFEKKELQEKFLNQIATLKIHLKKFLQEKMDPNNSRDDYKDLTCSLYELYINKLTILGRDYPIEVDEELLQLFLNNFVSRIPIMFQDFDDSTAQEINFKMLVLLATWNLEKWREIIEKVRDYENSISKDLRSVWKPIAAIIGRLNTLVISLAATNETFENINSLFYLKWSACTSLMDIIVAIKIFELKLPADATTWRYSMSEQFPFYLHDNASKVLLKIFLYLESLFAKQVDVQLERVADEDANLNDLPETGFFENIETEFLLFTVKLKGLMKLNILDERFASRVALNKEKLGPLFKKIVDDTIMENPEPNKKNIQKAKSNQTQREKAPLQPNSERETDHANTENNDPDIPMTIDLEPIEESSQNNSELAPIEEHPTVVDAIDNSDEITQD

[3] = target: T3, Smc3 (S. cerevisiae (budding yeast), UniProt P47037 1-1230); experiment: as above
T3 construct: Smc3, budding yeast; the Smc3 chain of m1; Stood in the cross-linking sample as a chain of cohesin; source: purified as part of cohesin, as previously described (Minamino et al. 2018)
T3 sequence (looked up): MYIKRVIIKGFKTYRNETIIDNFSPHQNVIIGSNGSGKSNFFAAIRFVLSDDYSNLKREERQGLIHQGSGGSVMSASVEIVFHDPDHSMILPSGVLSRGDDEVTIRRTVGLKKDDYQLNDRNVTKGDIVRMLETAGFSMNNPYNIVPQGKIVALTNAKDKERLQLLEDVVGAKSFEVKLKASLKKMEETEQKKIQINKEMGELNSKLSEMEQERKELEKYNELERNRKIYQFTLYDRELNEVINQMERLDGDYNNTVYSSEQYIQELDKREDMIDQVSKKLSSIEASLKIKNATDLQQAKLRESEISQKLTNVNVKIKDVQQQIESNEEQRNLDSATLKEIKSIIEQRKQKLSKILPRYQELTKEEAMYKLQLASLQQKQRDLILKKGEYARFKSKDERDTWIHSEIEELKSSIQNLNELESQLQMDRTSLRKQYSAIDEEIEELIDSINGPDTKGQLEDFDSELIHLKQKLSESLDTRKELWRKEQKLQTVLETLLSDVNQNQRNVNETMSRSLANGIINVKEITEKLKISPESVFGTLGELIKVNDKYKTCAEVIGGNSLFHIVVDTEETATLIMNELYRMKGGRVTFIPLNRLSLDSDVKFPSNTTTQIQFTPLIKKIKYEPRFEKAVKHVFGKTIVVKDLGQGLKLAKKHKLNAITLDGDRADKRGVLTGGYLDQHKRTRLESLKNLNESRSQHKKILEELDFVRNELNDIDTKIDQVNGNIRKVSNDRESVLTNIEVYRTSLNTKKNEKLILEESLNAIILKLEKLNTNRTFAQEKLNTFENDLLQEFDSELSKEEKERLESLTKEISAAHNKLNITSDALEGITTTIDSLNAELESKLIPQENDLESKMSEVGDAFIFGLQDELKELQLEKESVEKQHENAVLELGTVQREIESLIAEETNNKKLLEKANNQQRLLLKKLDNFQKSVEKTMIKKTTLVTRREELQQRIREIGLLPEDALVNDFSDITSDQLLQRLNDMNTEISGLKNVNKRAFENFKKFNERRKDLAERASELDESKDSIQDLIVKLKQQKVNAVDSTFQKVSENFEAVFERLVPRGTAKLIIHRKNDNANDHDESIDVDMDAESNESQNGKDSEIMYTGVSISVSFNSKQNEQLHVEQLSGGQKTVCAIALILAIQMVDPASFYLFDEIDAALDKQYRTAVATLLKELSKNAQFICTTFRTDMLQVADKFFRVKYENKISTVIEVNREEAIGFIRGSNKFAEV

T1 sequence (P32908 whole entry, chain 1 of 4, one chain of several): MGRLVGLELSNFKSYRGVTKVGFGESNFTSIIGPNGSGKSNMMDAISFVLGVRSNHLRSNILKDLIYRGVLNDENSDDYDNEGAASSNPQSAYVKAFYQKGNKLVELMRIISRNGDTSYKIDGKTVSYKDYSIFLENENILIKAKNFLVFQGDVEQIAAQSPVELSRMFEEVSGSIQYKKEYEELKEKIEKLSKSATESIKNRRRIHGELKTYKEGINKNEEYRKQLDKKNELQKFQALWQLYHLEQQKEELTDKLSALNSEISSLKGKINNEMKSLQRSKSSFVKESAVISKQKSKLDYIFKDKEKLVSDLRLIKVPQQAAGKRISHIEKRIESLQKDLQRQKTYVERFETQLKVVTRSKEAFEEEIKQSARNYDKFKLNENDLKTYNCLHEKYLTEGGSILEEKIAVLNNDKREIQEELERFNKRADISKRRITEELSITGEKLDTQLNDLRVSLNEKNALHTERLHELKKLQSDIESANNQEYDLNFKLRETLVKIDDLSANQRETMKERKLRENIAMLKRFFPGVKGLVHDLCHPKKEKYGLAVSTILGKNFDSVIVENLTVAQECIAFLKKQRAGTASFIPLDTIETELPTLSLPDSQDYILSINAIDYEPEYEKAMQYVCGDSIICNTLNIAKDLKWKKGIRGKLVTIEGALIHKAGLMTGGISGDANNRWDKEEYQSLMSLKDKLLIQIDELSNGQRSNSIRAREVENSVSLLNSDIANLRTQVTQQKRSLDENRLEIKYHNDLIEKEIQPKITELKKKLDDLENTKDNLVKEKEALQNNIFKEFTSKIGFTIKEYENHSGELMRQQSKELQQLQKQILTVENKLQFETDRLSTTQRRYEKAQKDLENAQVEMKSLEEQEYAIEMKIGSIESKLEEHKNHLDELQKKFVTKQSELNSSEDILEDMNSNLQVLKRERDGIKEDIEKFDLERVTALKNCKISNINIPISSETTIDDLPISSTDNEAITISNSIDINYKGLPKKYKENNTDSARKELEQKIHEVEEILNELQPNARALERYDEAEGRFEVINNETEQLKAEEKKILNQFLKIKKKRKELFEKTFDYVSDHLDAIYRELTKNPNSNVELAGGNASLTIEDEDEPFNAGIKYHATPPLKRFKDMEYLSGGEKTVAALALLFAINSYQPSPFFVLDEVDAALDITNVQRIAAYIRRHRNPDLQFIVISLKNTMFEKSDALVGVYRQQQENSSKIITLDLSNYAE
T1 sequence (Q12158 whole entry, chain 3 of 4, one chain of several): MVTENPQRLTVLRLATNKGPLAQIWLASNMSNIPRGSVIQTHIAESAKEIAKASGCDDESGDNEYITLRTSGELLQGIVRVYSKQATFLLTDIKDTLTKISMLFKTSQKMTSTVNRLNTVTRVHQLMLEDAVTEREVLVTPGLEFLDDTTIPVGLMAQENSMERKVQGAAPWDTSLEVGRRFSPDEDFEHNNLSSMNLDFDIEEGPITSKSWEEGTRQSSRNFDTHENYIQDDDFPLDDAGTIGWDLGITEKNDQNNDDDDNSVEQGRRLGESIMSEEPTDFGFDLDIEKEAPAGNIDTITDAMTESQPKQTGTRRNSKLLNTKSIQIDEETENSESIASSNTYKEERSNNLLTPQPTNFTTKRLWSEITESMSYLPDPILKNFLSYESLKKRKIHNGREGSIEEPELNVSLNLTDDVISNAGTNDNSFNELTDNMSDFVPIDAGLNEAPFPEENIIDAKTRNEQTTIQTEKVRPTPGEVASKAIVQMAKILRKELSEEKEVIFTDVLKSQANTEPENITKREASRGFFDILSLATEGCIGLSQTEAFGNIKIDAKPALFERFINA

binding result [1]: binds
binding result [2]: binds
binding result [3]: binds
B1: Mrc1 (natural protein, S. cerevisiae (budding yeast), UniProt P25588 1-1096, looked up)
chain: MDDALHALSSLTAKKRTTTYKKVAVPILDENDNTNGNGPNDIDNPPELTGNGFLFANATLNRVKNRLEGKKAPEQNHNNGKDRSENSLPTQLISNLYDGGEELEKSEVKDNSYSEKNVSSSFTQTQRIPVSIQQDKVFNVPIHSVNDGKPTQLIKEDGLVNETSQALKTPLTTGRPGATQRIDSSGATSQTQPIKSIEPQSQIITTSSNHSNALSPKIPIIPTELIGTSPLFQSIQNRGPDTQMDVPPQTAHDEDKTQAIGIPQATHQEQKTQIDTVAQTLQDEVPHTLKIREIQSELASEDSKREKARNVEYKKPQKPIPTKKFFSKESFLADFDDSSSNEDDDIKLENAHPKPVQNDDELHENKSVELNLTDETRINEKRVPLLSSYANNLKREIDSSKCITLDLDSDSDEYGDDDMDSIKLSKDESVLPISQLSKATILNLKARLSKQNQKLSQRPNKSKDPKVDHNVLLNTLRKASRKQILDHQKEVIETKGLKLEDMAKEKEIVENLLEQEILRNKRIRQKEKRREKLEENDFQLNAHDSGSDSGSESSGFALSGNEIADYESSGSENDNRRESDSEKEDDEIILKQKKSHHVKHIINESDSDTEVEAKPKEKADESLPKRIAINLGHYGDNIGEDTDKFQETNVLDTQNIEEVMAERNTIENEVKDDVYVNEEADEAIRRQLIDKEKLQLKQKEKEHEAKIKELKKRGVTNFFEMEAEESEDEWHGIGGADGEGSDDYDSDLEKMIDDYSKNNFNPHEIREMLAAENKEMDIKMINKILYDIKNGGFRNKRAKNSLELELSDDDEDDVLQQYRLKRRELMRKRRLEIGDDAKLVKNPKSSAFFESMVEDIIEYKNPFGAEEEYNLDITSTATDLDTQDNSINVGDNTGNNEQKPVDQKNKKVIISEDFVQKSLSFLKSNNYEDFETDKELSRIQHGNDEAIEDLYTLKQNSSIKSFTNSQTDSTTSKTVNTIIDLEKRPEDEDEVENGDTSLVGVFKHPSIIKSFASRTDINDKFKEGNKTVKILKSYKTVGSSKASITYMGKTRKLIAPKRKTEGSHRYHHDHHNKKMKMKTKTKSNKLFESGQDSFDN
notes: Mrc1, budding yeast; also called Flag-tagged Mrc1; source: purified as previously described (Yeeles et al. 2017)

Reference: article PMC10247859, “Replisome-cohesin interactions provided by the Tof1-Csm3 and Mrc1 cohesion establishment factors” (Chromosoma, 2023)
